Where a chain is given by its changes, count along the chain named.
T1: bL4_C36 (biotin-GSGS-C36-NH2, HIV-1 HXB2 Env gp41 HR2 peptide) (HIV-1 (HXB2 strain), N-terminal biotin; C-terminal amide)
T1 construct: also called C-peptide
T1 peptide: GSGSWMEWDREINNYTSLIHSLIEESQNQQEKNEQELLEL

B1: single-chain Alphabody scAB_Env04 (designed binder)
chain: MGHHHHHHHHHHSSGHIEGRHMSIEEIQKPIATIQETIAWIQKTIYGMTGGSGGGSGMSIEEIQKQIAAIQKQIAAIQKQIYAMTGGSGGGSGGGSGGGSGMSIEEIQKQIRAIFEQIVAICKQIIAMTP
notes: Soluble construct with N-terminal His10 tag (pET16b)
B2: single-chain Alphabody scAB_Env03 (designed binder)
chain: MGHHHHHHHHHHSSGHIEGRHMSIEEIQKPIATIQEAIAWIQKKIYMMTGGSGGGSGGGSGGGSGMSIEEIQKQIAAIQKQIAAIQKQIYAMTGGSGGGSGGGSGGGSGMSIEEIQKQIVAIMEQIVAIVKQISAMTP
notes: expressed soluble in E. coli with an N-terminal His10 tag; not shown: N-terminal 10-histidine tag from pET16b
B3: single-chain Alphabody scAB_Env03_KC (designed binder)
chain: B2 chain with K80C
modifications: Interchain disulfide between Cys80 of chain 1 and Cys80 of chain 2 (homodimer; paragraph 268, and FIG.11 prints 'scAB_Env03_KC (dimer)').
notes: also called Env03 Cys-mutant
B4: single-chain Alphabody scAB_Env02 (designed binder)
chain: B2 chain with T33S, A37L, W40T, K44Y, M47I, V120Q, M123T, V127I, V130S, S134I
notes: as for B1
B5: single-chain Alphabody scAB_Env03_PA (designed binder)
chain: B2 chain with P30A
notes: Made by the same protocol as the parent (N-terminal His10 tag); The substitution has no printed number
B6: single-chain Alphabody scAB_Env05 (designed binder)
chain: B2 chain with P30H, T33S, A37Y, K44E, M47R, V120L, V127Y, S134N
notes: as for B1

Assays:
[1] = biological target: T1, bL4_C36 (biotin-GSGS-C36-NH2, HIV-1 …); experiment: SPR, bL4_C36 immobilized on a streptavidin sensor chip, Alphabody injected at 250 to 7.8 nM, Langmuir model (phase 1)
[2] = biological target: T1, bL4_C36 (biotin-GSGS-C36-NH2, HIV-1 …); experiment: ELISA, bL4_C36 immobilized on neutravidin-coated plates, detection with Penta-His-HRP antibody, A450nm
[3] = biological target: T1, bL4_C36 (biotin-GSGS-C36-NH2, HIV-1 …); experiment: SPR, bL4_C36 on streptavidin chip, Langmuir model
[4] = biological target: T1, bL4_C36 (biotin-GSGS-C36-NH2, HIV-1 …); experiment: ELISA, peptide on neutravidin-coated plate, Penta-His-HRP detection
[5] = biological target: T1, bL4_C36 (biotin-GSGS-C36-NH2, HIV-1 …); experiment: SPR, bL4_C36 on streptavidin chip; disulfide dimer, bidentate binding
[6] = biological target: T1, bL4_C36 (biotin-GSGS-C36-NH2, HIV-1 …); experiment: SPR, bL4_C36 immobilized on a streptavidin sensor chip, two-step kinetic binding model, phase 2 (dimensionless)
[7] = biological target: T1, bL4_C36 (biotin-GSGS-C36-NH2, HIV-1 …); experiment: SPR, bL4_C36 immobilized on a streptavidin sensor chip, two-step kinetic binding model, phase 1
[8] = biological target: T1, bL4_C36 (biotin-GSGS-C36-NH2, HIV-1 …); experiment: SPR, two-step model, first fast association phase
[9] = biological target: T1, bL4_C36 (biotin-GSGS-C36-NH2, HIV-1 …); experiment: SPR, two-step model, global KD
[10] = biological target: T1, bL4_C36 (biotin-GSGS-C36-NH2, HIV-1 …); experiment: SPR, two-step model, second phase
[11] = biological target: T1, bL4_C36 (biotin-GSGS-C36-NH2, HIV-1 …); experiment: SPR, bL4_C36 immobilized on a streptavidin sensor chip, two-step kinetic binding model, global constant of phases 1+2 (KD1*KD2)

Binder	Kd [1] [nM]	koff [1] [s⁻¹]	kon [1] [M⁻¹ s⁻¹]	EC50 (read off the curve) [2] [nM]	Kd [3] [nM]	further results
B1	167	0.1	570000	~20	200	
B2	211			~5	200	EC50 [4]: ~6 nM
B3						Kd [5]: 0.62 nM; koff [5]: 2.4e-05 s⁻¹; kon [5]: 38000 M⁻¹ s⁻¹
B4				~20		
B5						KD (phase 2) [6]: 0.024 (-); KD (phase 1) [7]: 558 nM; kon [8]: ~100000 M⁻¹ s⁻¹; Kd [9]: ~10 nM; koff [10]: ~0.0001 s⁻¹; Kd [11]: 13 nM
B6	3930	0.32	81000	~40	4000	

Reference: US20140294828A1 (COMPLIX, published 2014)
